Results on 40 molecules are retold here after patent publication US20180155451A1 (published 2018).

B1: GpH7-B3 variant E333_09D/GpL16-k0 (antibody, human IgG1, kappa)
heavy: not shown
light: DIVMTQSPLSLPVTPGEPASISCQASESLVHSNRNTYLHWYLQKPGQSPQLLIYKVSNRFSGVPDRFSGSGSGTDFTLKISRVEAEDVGVYYCSQNTHVPPTFGQGTKVEIERTVAAPSVFIFPPSDEQLKSGTASVVCLLNNFYPREAKVQWKVDNALQSGNSQESVTEQDSKDSTYSLSSTLTLSKADYEKHKVYACEVTHQGLSSPVTKSFNRGEC
notes: homodimerized, mutation in both H chains; also called Ho Ab
B2: GpH7-B3 variant E333_08L/GpL16-k0 (antibody, human IgG1, kappa)
heavy: not shown
light: B1 light
notes: as for B1
B3: GpH7-B3 variant G236_07I/GpL16-k0 (antibody, human IgG1, kappa)
heavy: not shown
light: B1 light
notes: as for B1
B4: GpH7-B3 variant Y296_18N/GpL16-k0 (antibody, human IgG1, kappa)
heavy: not shown
light: B1 light
notes: as for B1
B5: GpH7-B3 variant L235_15Y/GpL16-k0 (antibody, human IgG1, kappa)
heavy: not shown
light: B1 light
notes: as for B1
B6: GpH7-B3 variant G236_03V/GpL16-k0 (antibody, human IgG1, kappa)
heavy: not shown
light: B1 light
notes: as for B1
B7: GpH7-B3 variant V266_07I/GpL16-k0 (antibody, human IgG1, kappa)
heavy: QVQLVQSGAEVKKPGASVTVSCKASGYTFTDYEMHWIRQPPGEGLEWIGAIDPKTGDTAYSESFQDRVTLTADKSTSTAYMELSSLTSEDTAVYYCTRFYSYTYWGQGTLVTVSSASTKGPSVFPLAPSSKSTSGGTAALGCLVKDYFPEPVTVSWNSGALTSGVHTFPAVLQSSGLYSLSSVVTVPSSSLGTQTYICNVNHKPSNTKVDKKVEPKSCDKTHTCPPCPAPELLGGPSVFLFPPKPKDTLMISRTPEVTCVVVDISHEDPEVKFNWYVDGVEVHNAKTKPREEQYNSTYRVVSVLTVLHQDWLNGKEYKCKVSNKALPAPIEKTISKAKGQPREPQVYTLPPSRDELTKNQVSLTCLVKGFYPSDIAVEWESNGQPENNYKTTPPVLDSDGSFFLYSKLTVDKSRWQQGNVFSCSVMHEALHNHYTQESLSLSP
light: B1 light
notes: as for B1
B8: GpH7-B3 variant E333_14T/GpL16-k0 (antibody, human IgG1, kappa)
heavy: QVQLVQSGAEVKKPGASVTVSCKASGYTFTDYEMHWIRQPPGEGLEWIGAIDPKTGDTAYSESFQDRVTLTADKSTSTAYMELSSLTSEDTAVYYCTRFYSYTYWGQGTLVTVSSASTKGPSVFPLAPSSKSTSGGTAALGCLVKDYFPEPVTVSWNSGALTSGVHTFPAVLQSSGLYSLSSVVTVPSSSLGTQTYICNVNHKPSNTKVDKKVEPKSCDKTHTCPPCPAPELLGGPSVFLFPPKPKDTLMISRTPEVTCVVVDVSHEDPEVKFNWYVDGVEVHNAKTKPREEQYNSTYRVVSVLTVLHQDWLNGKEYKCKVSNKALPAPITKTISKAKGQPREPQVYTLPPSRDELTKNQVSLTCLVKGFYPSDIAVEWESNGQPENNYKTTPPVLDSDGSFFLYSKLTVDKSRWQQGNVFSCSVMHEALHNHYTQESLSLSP
light: B1 light
notes: as for B1
B9: GpH7-B3 variant S324_02A/GpL16-k0 (antibody, human IgG1, kappa)
heavy: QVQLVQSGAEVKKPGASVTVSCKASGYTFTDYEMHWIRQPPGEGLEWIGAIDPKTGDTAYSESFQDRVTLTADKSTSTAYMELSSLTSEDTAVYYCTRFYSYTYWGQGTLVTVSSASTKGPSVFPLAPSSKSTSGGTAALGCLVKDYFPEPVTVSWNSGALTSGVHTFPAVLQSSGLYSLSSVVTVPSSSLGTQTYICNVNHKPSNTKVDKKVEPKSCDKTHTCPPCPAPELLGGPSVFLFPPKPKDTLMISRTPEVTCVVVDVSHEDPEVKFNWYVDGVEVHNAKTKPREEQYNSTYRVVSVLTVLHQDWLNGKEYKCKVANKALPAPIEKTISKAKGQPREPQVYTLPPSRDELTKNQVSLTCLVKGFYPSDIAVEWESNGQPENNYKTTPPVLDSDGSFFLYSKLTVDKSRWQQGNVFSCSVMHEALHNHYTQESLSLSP
light: B1 light
notes: as for B1
B10: GpH7-B3 variant K334_04F/GpL16-k0 (antibody, human IgG1, kappa)
heavy: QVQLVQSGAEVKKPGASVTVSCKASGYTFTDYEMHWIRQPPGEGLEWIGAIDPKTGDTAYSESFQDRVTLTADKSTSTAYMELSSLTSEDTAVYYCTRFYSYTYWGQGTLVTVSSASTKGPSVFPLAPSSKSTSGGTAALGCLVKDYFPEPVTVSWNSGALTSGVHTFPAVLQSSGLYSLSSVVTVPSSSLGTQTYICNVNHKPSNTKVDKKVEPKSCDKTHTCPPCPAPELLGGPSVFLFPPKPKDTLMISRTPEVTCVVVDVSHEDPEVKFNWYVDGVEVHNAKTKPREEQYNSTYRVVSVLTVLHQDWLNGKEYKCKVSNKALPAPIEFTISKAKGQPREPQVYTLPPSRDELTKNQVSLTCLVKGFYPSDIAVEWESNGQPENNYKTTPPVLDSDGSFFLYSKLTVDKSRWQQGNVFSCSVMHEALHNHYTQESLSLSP
light: B1 light
notes: as for B1
B11: GpH7-B3 variant T335_19Q/GpL16-k0 (antibody, human IgG1, kappa)
heavy: not shown
light: B1 light
notes: as for B1
B12: GpH7-B3 variant I336_06M/GpL16-k0 (antibody, human IgG1, kappa)
heavy: not shown
light: B1 light
notes: as for B1
B13: GpH7-B3 variant K334_08L/GpL16-k0 (antibody, human IgG1, kappa)
heavy: not shown
light: B1 light
notes: as for B1
B14: GpH7-B3 variant L235_04F/GpL16-k0 (antibody, human IgG1, kappa)
heavy: not shown
light: B1 light
notes: as for B1
B15: GpH7-B3 variant E333_13S/GpL16-k0 (antibody, human IgG1, kappa)
heavy: not shown
light: B1 light
notes: as for B1
B16: GpH7-B3 variant S337_10E/GpL16-k0 (antibody, human IgG1, kappa)
heavy: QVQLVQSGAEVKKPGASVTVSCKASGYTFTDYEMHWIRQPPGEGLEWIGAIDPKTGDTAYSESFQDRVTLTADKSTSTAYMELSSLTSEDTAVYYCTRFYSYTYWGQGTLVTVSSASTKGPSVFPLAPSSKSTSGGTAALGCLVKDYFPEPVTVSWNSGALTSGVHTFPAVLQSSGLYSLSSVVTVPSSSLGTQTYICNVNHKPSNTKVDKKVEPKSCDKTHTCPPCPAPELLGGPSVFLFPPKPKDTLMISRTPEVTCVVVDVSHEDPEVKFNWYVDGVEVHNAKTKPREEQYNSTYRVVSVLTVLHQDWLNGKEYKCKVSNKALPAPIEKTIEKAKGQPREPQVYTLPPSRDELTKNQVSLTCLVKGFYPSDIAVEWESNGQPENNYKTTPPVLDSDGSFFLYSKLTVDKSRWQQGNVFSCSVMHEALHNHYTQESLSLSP
light: B1 light
notes: as for B1
B17: GpH7-B3 variant H268_19Q/GpL16-k0 (antibody, human IgG1, kappa)
heavy: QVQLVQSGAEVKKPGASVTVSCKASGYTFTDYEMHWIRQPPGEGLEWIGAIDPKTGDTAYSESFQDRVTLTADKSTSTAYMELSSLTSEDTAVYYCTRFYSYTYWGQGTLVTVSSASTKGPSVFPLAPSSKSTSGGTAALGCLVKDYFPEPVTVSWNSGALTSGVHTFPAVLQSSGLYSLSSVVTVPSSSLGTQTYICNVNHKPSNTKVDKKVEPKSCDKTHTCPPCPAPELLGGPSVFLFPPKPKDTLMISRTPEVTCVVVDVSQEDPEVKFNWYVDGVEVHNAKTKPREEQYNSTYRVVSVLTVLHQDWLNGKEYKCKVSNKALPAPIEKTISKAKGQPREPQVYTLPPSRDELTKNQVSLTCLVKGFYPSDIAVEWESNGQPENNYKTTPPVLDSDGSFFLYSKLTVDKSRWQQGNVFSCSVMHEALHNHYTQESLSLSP
light: B1 light
notes: as for B1
B18: GpH7-B3 variant K334_16H/GpL16-k0 (antibody, human IgG1, kappa)
heavy: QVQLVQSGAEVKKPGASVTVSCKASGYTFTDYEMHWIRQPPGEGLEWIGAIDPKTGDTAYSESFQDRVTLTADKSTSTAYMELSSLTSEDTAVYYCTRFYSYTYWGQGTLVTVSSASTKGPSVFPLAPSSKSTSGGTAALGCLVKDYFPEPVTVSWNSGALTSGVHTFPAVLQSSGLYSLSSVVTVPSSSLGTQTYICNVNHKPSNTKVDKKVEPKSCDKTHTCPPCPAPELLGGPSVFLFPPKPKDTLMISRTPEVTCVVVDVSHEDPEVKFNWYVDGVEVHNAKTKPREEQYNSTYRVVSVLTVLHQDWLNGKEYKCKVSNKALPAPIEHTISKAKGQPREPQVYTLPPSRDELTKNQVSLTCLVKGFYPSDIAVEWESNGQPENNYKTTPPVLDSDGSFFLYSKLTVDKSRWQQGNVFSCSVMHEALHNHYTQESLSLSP
light: B1 light
notes: as for B1
B19: GpH7-B3 variant L328_06M/GpL16-k0 (antibody, human IgG1, kappa)
heavy: not shown
light: B1 light
notes: as for B1
B20: GpH7-B3 variant T335_13S/GpL16-k0 (antibody, human IgG1, kappa)
heavy: not shown
light: B1 light
notes: as for B1
B21: GpH7-B3 variant H268_02A/GpL16-k0 (antibody, human IgG1, kappa)
heavy: not shown
light: B1 light
notes: as for B1
B22: GpH7-B3 variant E333_04F/GpL16-k0 (antibody, human IgG1, kappa)
heavy: not shown
light: B1 light
notes: as for B1
B23: GpH7-B3 variant T335_15Y/GpL16-k0 (antibody, human IgG1, kappa)
heavy: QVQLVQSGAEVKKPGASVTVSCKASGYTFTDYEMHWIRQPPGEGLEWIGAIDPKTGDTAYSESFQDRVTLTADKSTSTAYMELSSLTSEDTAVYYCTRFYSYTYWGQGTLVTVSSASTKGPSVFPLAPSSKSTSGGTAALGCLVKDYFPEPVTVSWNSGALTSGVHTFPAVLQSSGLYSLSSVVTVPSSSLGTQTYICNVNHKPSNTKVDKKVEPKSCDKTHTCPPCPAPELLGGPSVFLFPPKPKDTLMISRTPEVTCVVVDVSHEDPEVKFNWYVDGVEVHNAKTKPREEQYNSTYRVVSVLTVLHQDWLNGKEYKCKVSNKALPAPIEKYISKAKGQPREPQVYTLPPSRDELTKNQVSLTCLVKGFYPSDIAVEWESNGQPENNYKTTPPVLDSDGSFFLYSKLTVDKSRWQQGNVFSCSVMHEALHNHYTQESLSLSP
light: B1 light
notes: as for B1
B24: GpH7-B3 variant T335_10E/GpL16-k0 (antibody, human IgG1, kappa)
heavy: not shown
light: B1 light
notes: as for B1
B25: GpH7-B3 variant L235_20W/GpL16-k0 (antibody, human IgG1, kappa)
heavy: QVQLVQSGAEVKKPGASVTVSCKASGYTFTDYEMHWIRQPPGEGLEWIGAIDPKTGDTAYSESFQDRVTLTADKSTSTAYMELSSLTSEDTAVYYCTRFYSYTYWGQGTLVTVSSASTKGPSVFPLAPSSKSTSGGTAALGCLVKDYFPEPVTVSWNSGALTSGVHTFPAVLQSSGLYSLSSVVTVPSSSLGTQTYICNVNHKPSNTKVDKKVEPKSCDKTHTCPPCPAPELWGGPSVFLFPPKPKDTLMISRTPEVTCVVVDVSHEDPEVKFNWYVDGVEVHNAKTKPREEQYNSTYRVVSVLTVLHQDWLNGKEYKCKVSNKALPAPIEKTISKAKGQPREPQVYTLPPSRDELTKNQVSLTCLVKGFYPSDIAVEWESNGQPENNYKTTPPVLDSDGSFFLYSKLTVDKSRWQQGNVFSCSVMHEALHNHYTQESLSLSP
light: B1 light
notes: as for B1
B26: GpH7-B3 variant K326_10E/GpL16-k0 (antibody, human IgG1, kappa)
heavy: not shown
light: B1 light
notes: as for B1
B27: GpH7-B3 variant L328_14T/GpL16-k0 (antibody, human IgG1, kappa)
heavy: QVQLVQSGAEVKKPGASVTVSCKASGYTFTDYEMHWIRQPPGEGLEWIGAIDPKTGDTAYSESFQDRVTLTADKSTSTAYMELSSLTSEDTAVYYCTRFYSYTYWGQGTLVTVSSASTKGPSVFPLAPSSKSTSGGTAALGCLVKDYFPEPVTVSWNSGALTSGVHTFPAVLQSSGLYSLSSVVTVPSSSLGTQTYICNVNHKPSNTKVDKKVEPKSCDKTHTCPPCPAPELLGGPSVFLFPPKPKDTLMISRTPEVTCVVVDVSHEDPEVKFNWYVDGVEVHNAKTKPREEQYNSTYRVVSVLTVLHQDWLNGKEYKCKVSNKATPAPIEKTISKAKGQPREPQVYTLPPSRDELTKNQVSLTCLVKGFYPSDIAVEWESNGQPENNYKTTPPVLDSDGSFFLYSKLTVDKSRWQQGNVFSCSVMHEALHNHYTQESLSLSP
light: B1 light
notes: as for B1
B28: GpH7-B3 variant I336_08L/GpL16-k0 (antibody, human IgG1, kappa)
heavy: not shown
light: B1 light
notes: as for B1
B29: GpH7-B3 variant H268_18N/GpL16-k0 (antibody, human IgG1, kappa)
heavy: not shown
light: B1 light
notes: as for B1
B30: GpH7-B3 variant A327_09D/GpL16-k0 (antibody, human IgG1, kappa)
heavy: not shown
light: B1 light
notes: as for B1
B31: GpH7-B3 variant K326_06M/GpL16-k0 (antibody, human IgG1, kappa)
heavy: not shown
light: B1 light
notes: as for B1
B32: GpH7-B3 variant L328_20W/GpL16-k0 (antibody, human IgG1, kappa)
heavy: not shown
light: B1 light
notes: as for B1
B33: GpH7-B3 variant A330_19Q/GpL16-k0 (antibody, human IgG1, kappa)
heavy: not shown
light: B1 light
notes: as for B1
B34: GpH7-B3 variant S267_02A/GpL16-k0 (antibody, human IgG1, kappa)
heavy: not shown
light: B1 light
notes: as for B1
B35: GpH7-B3 variant T335_16H/GpL16-k0 (antibody, human IgG1, kappa)
heavy: not shown
light: B1 light
notes: as for B1
B36: GpH7-B3 variant T335_07I/GpL16-k0 (antibody, human IgG1, kappa)
heavy: not shown
light: B1 light
notes: as for B1
B37: GpH7-B3 variant K326_19Q/GpL16-k0 (antibody, human IgG1, kappa)
heavy: not shown
light: B1 light
notes: as for B1
B38: GpH7-B3 variant T335_01G/GpL16-k0 (antibody, human IgG1, kappa)
heavy: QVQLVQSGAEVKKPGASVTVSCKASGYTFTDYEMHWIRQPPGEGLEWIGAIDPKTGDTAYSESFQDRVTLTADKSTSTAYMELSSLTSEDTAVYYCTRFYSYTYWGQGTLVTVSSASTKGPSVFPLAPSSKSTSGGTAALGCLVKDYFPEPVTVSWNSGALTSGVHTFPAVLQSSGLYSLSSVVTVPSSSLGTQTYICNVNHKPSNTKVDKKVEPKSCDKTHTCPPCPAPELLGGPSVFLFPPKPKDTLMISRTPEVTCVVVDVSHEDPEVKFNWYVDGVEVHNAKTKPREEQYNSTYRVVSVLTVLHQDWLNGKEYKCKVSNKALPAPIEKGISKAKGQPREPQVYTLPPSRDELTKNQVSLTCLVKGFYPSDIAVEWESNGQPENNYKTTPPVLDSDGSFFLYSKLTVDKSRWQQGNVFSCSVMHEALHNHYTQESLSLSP
light: B1 light
notes: as for B1
B39: GpH7-B3 variant S239_09D/GpL16-k0 (antibody, human IgG1, kappa)
heavy: not shown
light: B1 light
notes: as for B1
B40: GpH7-B3 variant S337_09D/GpL16-k0 (antibody, human IgG1, kappa)
heavy: not shown
light: B1 light
notes: as for B1

The target of the assay is FcγRIIa H (human FcγRIIa, allotype with His at position 131), extracellular domain with C-terminal His tag (human, UniProt P12318 34-217). As to the kind of experiment: SPR (Biacore), antibody captured on antigen peptide chip, FcγR as analyte; relative to HoCon Ab GpH7-B3/GpL16-k0 = 100. A general note: SPR reads the build-up and loss of mass on a sensor chip optically.
Molecule B1 had a Ho/Con_2aH of 103 control = 100.

The molecule B2 showed a Ho/Con_2aH of 96.5 control = 100.

On to B3, for which the Ho/Con_2aH amounted to 101 control = 100.

In the case of B4, the Ho/Con_2aH came to 100 control = 100.

With B5, the Ho/Con_2aH was determined as 107 control = 100.

The molecule B6 gave a Ho/Con_2aH of 111 control = 100.

The molecule B7 gave a Ho/Con_2aH of 104 control = 100.

B8 showed a Ho/Con_2aH of 90.4 control = 100.

Take B9: the Ho/Con_2aH is 102 control = 100.

B10 came in with a Ho/Con_2aH of 103 control = 100.

The molecule B11 gave a Ho/Con_2aH of 103 control = 100.

B12 displayed a Ho/Con_2aH of 100 control = 100.

As for B13, the Ho/Con_2aH is 103 control = 100.

As to B14, the Ho/Con_2aH stood at 101 control = 100.

With B15, the Ho/Con_2aH worked out at 94.6 control = 100.

As to B16, the Ho/Con_2aH amounted to 101 control = 100.

For B17, the Ho/Con_2aH is 102 control = 100.

In turn, B18 registered a Ho/Con_2aH of 101 control = 100.

B19 displayed a Ho/Con_2aH of 100 control = 100.

The molecule B20 yielded a Ho/Con_2aH of 101 control = 100.

As to B21, the Ho/Con_2aH came out at 111 control = 100.

In turn, B22 yielded a Ho/Con_2aH of 93.6 control = 100.

Molecule B23 yielded a Ho/Con_2aH of 102 control = 100.

On to B24, for which the Ho/Con_2aH is 105 control = 100.

B25 yielded a Ho/Con_2aH of 112 control = 100.

As to B26, the Ho/Con_2aH amounted to 101 control = 100.

B27 had a Ho/Con_2aH of 110 control = 100.

B28 came in with a Ho/Con_2aH of 101 control = 100.

B29 showed a Ho/Con_2aH of 110 control = 100.

As to B30, the Ho/Con_2aH was determined as 90.1 control = 100.

On to B31, for which the Ho/Con_2aH was determined as 101 control = 100.

Turning to B32, the Ho/Con_2aH was found to be 112 control = 100.

B33 returned a Ho/Con_2aH of 99.2 control = 100.

In turn, B34 displayed a Ho/Con_2aH of 120 control = 100.

In the case of B35, the Ho/Con_2aH worked out at 100 control = 100.

As to B36, the Ho/Con_2aH worked out at 105 control = 100.

On to B37, for which the Ho/Con_2aH was 100 control = 100.

Consider B38, for which the Ho/Con_2aH was 101 control = 100.

Turning to B39, the Ho/Con_2aH came to 112 control = 100.

Molecule B40 showed a Ho/Con_2aH of 107 control = 100.
